From the supplement of paper PMC9732359
± gives the uncertainty stated by the source.

Experiment: protein stability index of a GFP-peptide fusion (yeast GPS) (PSI 1-4); higher = more stable; sorted into four equal gates, so the index is relative within each strain
Procedure, shortened: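 Plasmids isolated from each sorting gate were PCR-amplified and Illumina-sequenced, and barcodes assigned the reads to strains. The gates, four of equal size, were set by GFP/Cherry fluorescence ratio on mid-log cultures in leucine-free medium. These cultures were yeast carrying a pooled library of tiled 17-residue yeast protein peptides fused downstream of GFP on a plasmid that also expresses Cherry. The protein stability index is the sum of every gate's read frequency times its gate number.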

| Sequence | protein stability index (doa10∆) | protein stability index (pdr5∆) | protein stability index (san1∆) | protein stability index (ubr1∆) |
| --- | --- | --- | --- | --- |
| VFKATSSTDEESWFKAL [FAS1] | 2.92 ± 0.13 | 3 ± 0.15 | 2.75 ± 0.082 | 2.88 ± 0.084 |
| NVASLVRVQFQFTGFLL [GRR1] | 1.85 ± 0.072 | 1.73 ± 0.075 | 1.48 ± 0.1 | 1.55 ± 0.058 |
| EKNYDRKEPPATVEECV [PRE6] | 3.3 ± 0.14 | 3.29 ± 0.12 | 3.11 ± 0.079 | 3.3 ± 0.072 |
| RTMDDIKDSVREVGTKF [ECM29] | 3.35 ± 0.11 | 3.47 ± 0.11 | 3.27 ± 0.088 | 3.29 ± 0.072 |
| NWRLVEVGRVVLIKKGQ [RPL14A] | 2.17 ± 0.18 | 1.74 ± 0.13 | 2.15 ± 0.13 | 2.19 ± 0.19 |
| LSKMRDSVLQLASFEKT [RPO31] | 3.12 ± 0.13 | 2.97 ± 0.079 | 2.91 ± 0.11 | 3.01 ± 0.11 |
| LVEPSKVGQFDQVLNLC [FAS1] | 2.35 ± 0.13 | 2.41 ± 0.09 | 2.78 ± 0.11 | 2.73 ± 0.16 |
| LMKKACYVGLLTAIPIL [SNU114] | 1.55 ± 0.035 | 1.45 ± 0.036 | 1.53 ± 0.054 | 1.66 ± 0.032 |
| DFTQEDELRKQELISKA [ISW2] | 3.11 ± 0.12 | 3.1 ± 0.076 | 3.03 ± 0.083 | 3.09 ± 0.09 |
| SHILNSHSLALNEITNS [DSN1] | 2.14 ± 0.033 | 2.41 ± 0.035 | 2.28 ± 0.037 | 2.36 ± 0.03 |
| ITSLQDSSSQCIVDFTN [YMR129W/POM152] | 2.67 ± 0.067 | 2.92 ± 0.066 | 2.69 ± 0.058 | 2.85 ± 0.059 |
| AKLSDTLIIDQVRKDLG [NUT1] | 2.83 ± 0.11 | 2.32 ± 0.16 | 2.7 ± 0.13 | 2.85 ± 0.09 |
| TPSTSSNGEFIPHIFYS [CSE2] | 2.36 ± 0.054 | 2.44 ± 0.043 | 2.62 ± 0.044 | 2.82 ± 0.048 |
| RSIMKNRSVVYFKLDLT [RRI2] |  | 1.58 ± 0.22 |  |  |
| LDIKRVGSENVECTISI [SNF12] | 2.27 ± 0.067 | 2.78 ± 0.066 | 2.56 ± 0.056 | 2.81 ± 0.065 |
| SQFINDHILFTKTFIFI [SRB8] | 1.56 ± 0.054 | 1.48 ± 0.056 | 1.47 ± 0.089 | 1.41 ± 0.033 |
| LIAVYYSFGGLLMRLEG [RPB8] | 2.69 ± 0.059 | 2.79 ± 0.076 | 3.07 ± 0.1 | 2.89 ± 0.069 |
| DTTANNGKVQYFLRRQY [YJL039C/NUP192] | 2.71 ± 0.095 | 2.65 ± 0.14 | 2.83 ± 0.15 | 2.98 ± 0.091 |
| ISGYKKFSSTSRYMQYN [RPT1] | 1.26 ± 0.18 | 1.59 ± 0.15 | 1.56 ± 0.2 | 1.7 ± 0.11 |
| DVKISNDFFDNGDNLYG [RPN4] | 2.39 ± 0.086 | 2.93 ± 0.063 | 2.67 ± 0.12 | 1.69 ± 0.057 |
| QESLLSRTFDKYSKLVD [SRP72] | 2.83 ± 0.059 | 2.9 ± 0.068 | 2.99 ± 0.055 | 2.7 ± 0.04 |
| AISQSLRDESLTVDNLS [PRE5] | 2.96 ± 0.093 | 3.15 ± 0.089 | 3.33 ± 0.078 | 3.32 ± 0.06 |
| EVYMRYRNFMVNSYRLN [SWI3] | 2.19 ± 0.062 | 1.62 ± 0.06 | 1.46 ± 0.099 | 1.44 ± 0.097 |
| HYPEIEDLVDRIENPEK [RPP0] | 2.84 ± 0.1 | 3.17 ± 0.081 | 2.97 ± 0.12 | 3.05 ± 0.072 |
| SKEDTLRLCLDIVPYFL [RPN1] | 1.92 ± 0.05 | 1.92 ± 0.033 | 1.58 ± 0.081 | 2.12 ± 0.057 |
| SSLVRSCGEEEFFSTNW [REC8] | 3.49 ± 0.23 | 3.52 ± 0.18 |  | 3.18 ± 0.2 |
| DTSGLKISNSEFFNPEI [SIN4] | 3.21 ± 0.096 | 3.44 ± 0.12 | 3.1 ± 0.058 | 3.29 ± 0.074 |

| Sequence | protein stability index (doa10∆) | protein stability index (pdr5∆) | protein stability index (san1∆) | protein stability index (ubr1∆) |
| --- | --- | --- | --- | --- |
| VIITDGTLLREDDNTPA [YDL088C/ASM4] | 2.94 ± 0.077 | 2.9 ± 0.081 | 2.94 ± 0.056 | 3.01 ± 0.042 |
| RSTDVWYEASTWIQQFK [ARP7] |  | 3.64 ± 0.13 | 2.45 ± 0.28 | 2.97 ± 0.13 |
| KNYDATDKPFSSTQDVI [CSI1] | 2.37 ± 0.13 | 2.96 ± 0.1 | 2.85 ± 0.088 | 3.06 ± 0.086 |
| KPSFSFGVPNSSKNETS [YLR335W/NUP2] | 2.13 ± 0.077 | 1.64 ± 0.082 | 2.46 ± 0.098 | 1.5 ± 0.059 |
| NYPQLTEDILKEISTRV [YCS4] |  | 3.11 ± 0.17 |  | 3.41 ± 0.13 |
| SLLASKSTYRTPNFDDV [RIP1] | 2.78 ± 0.29 |  |  | 3.49 ± 0.17 |
| DEFKDITKEVTQVNILK [YIL149C/MLP2] | 3.14 ± 0.082 | 3.2 ± 0.075 | 2.67 ± 0.14 | 3.3 ± 0.057 |
| GQSSVKHEDFVEGISEV [RPT5] | 3.7 ± 0.24 |  |  | 3.41 ± 0.2 |
| KALDNACGAFININEFA [CDC53] | 2.56 ± 0.12 | 3 ± 0.14 | 2.71 ± 0.094 | 2.82 ± 0.15 |
| DKRFSGSLKLPNCPRPN [RPL1A] | 2.77 ± 0.073 | 3.05 ± 0.052 | 2.94 ± 0.051 | 2.6 ± 0.046 |
| EVSTSTSMTGDANLLEE [SWI3] | 3.09 ± 0.13 | 3.23 ± 0.11 | 3.24 ± 0.042 | 3.3 ± 0.041 |
| NFKDMSHVNKYGLIRGL [PRP8] | 2 ± 0.069 | 1.47 ± 0.067 | 2.19 ± 0.13 | 1.16 ± 0.032 |
| VEEVIKLVRDSFTSATE [PRE7] | 3.06 ± 0.078 | 3.33 ± 0.066 | 3.18 ± 0.052 | 3 ± 0.061 |
| EDEDDGESEKSSDVDMD [RPC53] | 3.28 ± 0.11 | 3.66 ± 0.14 | 3.29 ± 0.19 | 3.32 ± 0.094 |
| QANPTEESISKFPDMGS [RPB5] | 3.23 ± 0.082 | 3.26 ± 0.076 | 3.04 ± 0.074 | 3.26 ± 0.087 |
| FLERKCVHMVYEYAEHD [SSN3] | 1.71 ± 0.061 | 1.67 ± 0.071 | 1.69 ± 0.09 | 1.83 ± 0.046 |
| VVGQNQLIDQFEWDISN [SNF5] | 2.52 ± 0.093 | 2.62 ± 0.1 | 2.9 ± 0.062 | 3 ± 0.12 |
| QAYEEIISSNENALIEL [YIL149C/MLP2] | 3.18 ± 0.064 | 3.07 ± 0.061 | 2.92 ± 0.071 | 3.23 ± 0.042 |
| TSLKKIKDEIDDPFTKI [SWI1] | 3.41 ± 0.17 | 3.24 ± 0.22 |  | 3.49 ± 0.13 |
| FVFQTVFDTAITSWYEN [QCR9] | 1.66 ± 0.054 | 1.6 ± 0.039 | 1.74 ± 0.077 | 1.97 ± 0.044 |
| GKSEKLSLLLVEDKIPL [SKI6] | 2.45 ± 0.11 | 2.79 ± 0.095 | 3.23 ± 0.056 | 3.27 ± 0.12 |
| ARKELPIFDYIHIDALE [SIR3] | 2.3 ± 0.053 | 2.34 ± 0.056 | 2.21 ± 0.059 | 2.5 ± 0.047 |
| SMNATMRNFSKQNQDSK [YDL088C/ASM4] | 2.86 ± 0.14 | 2.99 ± 0.24 | 1.94 ± 0.27 | 2.84 ± 0.24 |
| NYTDLIWFPEDFISPEL [MED1] | 2.56 ± 0.058 | 2.61 ± 0.058 | 2.82 ± 0.067 | 2.56 ± 0.032 |
| IDSTDHIRKASSKKSKR [LRP1] | 2.15 ± 0.046 | 1.99 ± 0.039 | 1.83 ± 0.058 | 2.14 ± 0.038 |
| KRFLILQGEVENIAQMK [SMC4] | 3.05 ± 0.29 | 2.98 ± 0.14 | 3.2 ± 0.14 | 2.79 ± 0.098 |
| ATKDNELNVKHVKQCQE [SMC2] | 2.96 ± 0.1 | 3.35 ± 0.2 | 2.97 ± 0.066 | 3.32 ± 0.05 |
